# Data from US8530168B2, “Fusion protein comprising a Caspase domain and a nuclear hormone receptor binding domain and methods and uses thereof” (Helmholtz Zentrum Munich Deutsches Forschungszentrum fuer …, priority 2007, dated 2013).
# Experiments:
# MEF5/N9 cells = assay: TUNEL in situ cell death detection assay of MEF5/N9 clones; type: cell-based, mouse; conditions: 10^−8 M 4-OH-tamoxifen; for TUNEL result / apoptotic morphology (in words): 3 or 7 hours; for incubation time with 4-OH-tamoxifen at which TUNEL positive cells were detected: fixation at 2, 3, 5 and 7 hours
# Text: TUNEL, or terminal deoxynucleotidyl transferase-mediated dUTP nick end-labeling, is acknowledged as a method of choice in the rapid detection of DNA fragmentation that results from apoptotic signaling cascades (Gavrieli et al., J. Cell Biol., 119(3), 493-501 (1992)). Cleavage of genomic DNA during apoptosis may yield double-stranded, low molecular weight DNA fragments as well as single strand breaks (“nicks”) in high molecular weight DNA. Those DNA strand breaks can be identified by terminal deoxynucleotidyl transferase (TdT), which catalyzes polymerization of labeled nucleotides to free 3′-OH DNA ends in a template-independent manner. To detect 4-OH-tamoxifen induced cell death in MEF5/N9 cells, we applied the In Situ Cell Death Detection Kit, POD by Roche according to the manufacturer's instructions. Incorporated fluorescein is detected by anti-fluorescein antibody, conjugated with horse-radish peroxidase (POD). After substrate reaction, stained cells can be analyzed under light microscopy.
# Two days prior to the TUNEL staining, round glass cover slips ([…]) were sterilized with 70% EtOH, dried under laminar flow and coated with Poly-L-lysine at a concentration of 50 μg/ml over night at 37° C., which allows a better attachment of cells on the cover slips. The following day, the cover slips were rinsed 3 times with PBS and dried for 1 hour under laminar flow. 2.5·10^5 cells were seeded onto cover slips in a 6-well plate. On the test day, medium was replaced either by fresh medium or medium supplemented with 10^−8 M 4-OH-tamoxifen. […] After fixation, cells were rinsed three times in PBS, covered with 100% methanol and incubated for 10 min or over night in a freezer and rinsed in PBS. Endogenous peroxidase activity was blocked by immersing cover slips for 10 min in 3% H2O2 in methanol prior to cell permeabilization. Cells were subsequently rinsed with PBS and incubated in permeabilization solution (0.1% Triton X-100 in freshly prepared 0.1% sodium citrate) for 2 min on ice. To generate a positive control, DNA strand breaks were induced by incubating permeabilized cells with 2 U/ml DNase I in 50 mM Tris-HCl, pH 7.5, 10 mM MgCl2, 1 mg/ml BSA for 10 min at room temperature, prior to labeling procedure. Cover slips were rinsed twice with PBS before incubating each sample with 25 μl TUNEL reaction mixture for 60 min at 37° C. in a humidified atmosphere in the dark. To avoid evaporative loss, cover slips were covered with parafilm. For a negative control 25 μl of Label solution without enzyme solution were added. Following labeling, cover slips were rinsed 3 times with PBS for 10 min each. To convert the fluorescence signal to a chromogenic signal, 25 μl of the POD solution were added on each sample which was covered with parafilm and incubated in a humidified chamber for 30 min at 37° C. Subsequently, cover slips were rinsed 3 times with PBS and incubated in freshly prepared 0.05% DAB in 0.1 M Tris-HCl (pH 7.4) supplemented with 0.02% H2O2 for 10-20 min at room temperature. The conversion procedure was controlled under a light microscope. The reaction was stopped with PBS until brown precipitates were well visible inside the cells. To remove DAB, cover slips were rinsed several times in PBS. Optionally, nuclear staining was performed by incubating cover slips for 15 min in 2.5 μg/ml DAPI diluted in PBS. Cover slips were mounted with a water-soluble, non-fluorescing mounting medium (Aqua-Poly/Mount; Polysciences Inc., Eppelheim, Germany) under SuperFrost slides (VWR International). Prior to the analysis of the samples under a light microscope, mounting medium was dried for 24 hours at room temperature.
# To provide direct evidence for 4-OH-tamoxifen-induced apoptosis in MEF5/N9 clones expressing Caspase-8 or -9 fusion proteins, an in situ application of the TUNEL assay was performed. This method detects DNA fragmentation, one of the late events that result from apoptotic signaling cascades. […]
# Pac2 cells = assay: Transient cotransfection with β-galactosidase reporter into Pac2 cells; type: cell-based, zebrafish; conditions: 10^−8 M 4-OH-tamoxifen, Cre-ER(T2) as reference, range given jointly for HeLa and Pac2
# Experimental: (§1) Results are shown as mean values of triplicate samples with standard deviation. (b) Transient cotransfection of a β-galactosidase reporter with a Cre-ER(T2), myrCasp8-ER(T2), or Casp9-ER(T2) expression plasmid into murine M5/N9 (black columns), human HeLa (grey columns) or zebrafish Pac2 (open columns) cells. 12 h following transfection, cells were cultured for 36 h with 4-OH-tamoxifen at 10^−8 M and the activity of β-galactosidase in cell lysates was determined. Values obtained from transfections of the Cre-ER(T2) vector were defined as reference. Results are shown as mean values of triplicate samples with standard deviation.
# PAC2 zebrafish fibroblasts were grown in Leibowitz's L15—with L-Glutamine medium supplemented with 1% Non-essential Amino Acids, 1% Penicillin/Streptomycin and 10% fetal calf serum (all Gibco) at 28° C. 3×10^6 Cells were transiently transfected with the plasmids CMVβ together with CAG-CreER(T2), CAG-myrCasp8ER(T2) or CAG-Casp9ER(T2) (500 ng each) using nanofectin transfection reagent (PAA). 24 hrs after transfection the medium was replaced and conditioned with 10^−8 M 4-OH-tamoxifen. Before lysis, the cells were incubated for another 24 hrs at 28°. […]
# HeLa cells = assay: Transient cotransfection with β-galactosidase reporter into HeLa cells; type: cell-based, human; conditions: 10^−8 M 4-OH-tamoxifen, Cre-ER(T2) as reference, range given jointly for HeLa and Pac2
# Experimental: as §1
# Transient transfections into M5/N9 and HeLa cells were performed with FuGene transfection reagent (Roche) following the manufacturer's instructions. Briefly, semiconfluent cultures in a 24-well plate were transfected in triplicate with 112 ng of the β-galactosidase expression vector CMVβ(Invitrogen) and the same amount of pCAG-Cre-ER(T2), pCAG-Casp8-ER(T2) or pCAG-Casp9-ER(T2) plasmid DNA. After 12 h 4-OH-tamoxifen was added at a concentration of 10^−8 M and the cultures were lysed at 48 h. Cell lysis and the measurement of β-galactosidase activity by chemiluminescence were performed with the β-galactosidase reporter gene assay (Roche) using a Centro LB960 plate luminometer (Berthold). […]
Molecule,TUNEL result / apoptotic morphology (in words) (MEF5/N9 cells),incubation time with 4-OH-tamoxifen at which TUNEL positive cells were detected (MEF5/N9 cells),reduction of β-Galactosidase activity in presence of 4-OHT (Pac2 cells),reduction of β-Galactosidase activity in presence of 4-OHT (HeLa cells)
"Casp8-ER(T2): fusion of murine Caspase-8 domain to the ER(T2) ligand binding domain, SEQ ID NO: 20 (protein, fusion protein Casp8-ER(T2)) MSESRTSDKVYQMKNKPRGYCLIINNHDFSKAREDITQLRKMKDRKGTDCDKEALSKTFKELHFEIVSYDDCTANEIHEILEGYQSADHKNKDCFICCILSHGDKGVVYGTDGKEASIYDLTSYFTGSKCPSLSGKPKIFFIQACQGSNFQKGVPDEAGFEQQNHTLEVDSSSHKNYIPDEADFLLGMATVKNCVSYRDPVNGTWYIQSLCQSLRERCPQGDDILSILTGVNYDVSNKDDRRNKGKQMPQPTFTLRKKLFFPPLEPSAGDMRAANLWPSPLMIKRSKKNSLALSLTADQMVSALLDAEPPILYSEYDPTRPFSEASMMGLLTNLADRELVHMINWAKRVPGFVDLTLHDQVHLLECAWLEILMIGLVWRSMEHPVKLLFAPNLLLDRNQGKCVEGMVEIFDMLLATSSRFRMMNLQGEEFVCLKSIILLNSGVYTFLSSTLKSLEEKDHIHRVLDKITDTLIHLMAKAGLTLQQQHQRLAQLLLILSHIRHMSNKGMEHLYSMKCKNVVPLYDLLLEAADAHRLHAPTSRGGASVEETDQSHLATAGSTSSHSLQKYYITGEAEGFPATA",typical apoptotic morphology,7 h,,
"myrCasp8-ER(T2): murine Caspase-8 domain with N-terminal myristoylation motif fused to ER(T2) ligand binding domain, SEQ ID NO: 23 (protein, N-terminal myristoylation motif; fusion protein myrCasp8-ER(T2)) MGSSKSKPKDPSQRSESRTSDKVYQMKNKPRGYCLIINNHDFSKAREDITQLRKMKDRKGTDCDKEALSKTFKELHFEIVSYDDCTANEIHEILEGYQSADHKNKDCFICCILSHGDKGVVYGTDGKEASIYDLTSYFTGSKCPSLSGKPKIFFIQACQGSNFQKGVPDEAGFEQQNHTLEVDSSSHKNYIPDEADFLLGMATVKNCVSYRDPVNGTWYIQSLCQSLRERCPQGDDILSILTGVNYDVSNKDDRRNKGKQMPQPTFTLRKKLFFPPLEPSAGDMRAANLWPSPLMIKRSKKNSLALSLTADQMVSALLDAEPPILYSEYDPTRPFSEASMMGLLTNLADRELVHMINWAKRVPGFVDLTLHDQVHLLECAWLEILMIGLVWRSMEHPVKLLFAPNLLLDRNQGKCVEGMVEIFDMLLATSSRFRMMNLQGEEFVCLKSIILLNSGVYTFLSSTLKSLEEKDHIHRVLDKITDTLIHLMAKAGLTLQQQHQRLAQLLLILSHIRHMSNKGMEHLYSMKCKNVVPLYDLLLEAADAHRLHAPTSRGGASVEETDQSHLATAGSTSSHSLQKYYITGEAEGFPATA",typical apoptotic morphology,3 h,95-99%,95-99%
"Cre-ER(T2): fusion of Cre recombinase to ER(T2) ligand binding domain, negative control, SEQ ID NO: 5 (protein, fusion protein Cre-ER(T2)) MSNLLTVHQNLPALPVDATSDEVRKNLMDMFRDRQAFSEHTWKMLLSVCRSWAAWCKLNNRKWFPAEPEDVRDYLLYLQARGLAVKTIQQHLGQLNMLHRRSGLPRPSDSNAVSLVMRRIRKENVDAGERAKQALAFERTDFDQVRSLMENSDRCQDIRNLAFLGIAYNTLLRIAEIARIRVKDISRTDGGRMLIHIGRTKTLVSTAGVEKALSLGVTKLVERWISVSGVADDPNNYLFCRVRKNGVAAPSATSQLSTRALEGIFEATHRLIYGAKDDSGQRYLAWSGHSARVGAARDMARAGVSIPEIMQAGGWTNVNIVMNYIRNLDSETGAMVRLLEDGDLEPSAGDMRAANLWPSPLMIKRSKKNSLALSLTADQMVSALLDAEPPILYSEYDPTRPFSEASMMGLLTNLADRELVHMINWAKRVPGFVDLTLHDQVHLLECAWLEILMIGLVWRSMEHPVKLLFAPNLLLDRNQGKCVEGMVEIFDMLLATSSRFRMMNLQGEEFVCLKSIILLNSGVYTFLSSTLKSLEEKDHIHRVLDKITDTLIHLMAKAGLTLQQQHQRLAQLLLILSHIRHMSNKGMEHLYSMKCKNVVPLYDLLLEAADAHRLHAPTSRGGASVEETDQSHLATAGSTSSHSLQKYYITGEAEGFPATA",TUNEL negative at any point in time,,,
